Test results as given in paper PMC9947420.

Target: GST-tagged PEX5-binding domain of X. laevis PEX14 (amino acids 19-78) (Xenopus laevis)
Assay: SEC; Superdex 200 HiLoad 26/600 PG, XBHS buffer with 1 mM DTT; retention volume between 180 and 190 mL

stoichiometry N: 2
Substance: GST-tagged PEX5-binding domain of X. laevis PEX14 (amino acids 19-78) (domain or fragment)
